By Kd is commonly meant the equilibrium constant for the complex coming apart. The koff is the first-order rate constant of dissociation. One may read the kon as the second-order rate constant of association.

The source of these data is US20120237528A1 (Janssen / Centocor, published 2012).

Changes are numbered by the printed parent chain.

The chains are these.
B1: M1583 (antibody, V domains shown)
VH: EVQLVQSGAEVKKPGESLRISCKGSGYTFGPYWIEWVRQMPGKGLEWMGDIIPGSGWTNYSPSFQGHVTISADKSISTAYLQWSSLKASDTAMYYCARSGYYGNSGFAYWGQGTLVTVSS
VL: DIVMTQTPLSLPVTPGEPASISCKSSQSLLSSGNQKNYLTWYLQKPGQSPQLLIYWASTRESGVPDRFSGSGSGTDFTLKISRVEAEDVGVYYCQNDYTYPLTFGQGTKLEIK
notes: complete MAb; FR4 is its own entry; also called H177/L3
B2: M1602 (antibody, V domains shown)
VH: B1 VH with G30D, P31A, Y32H, I52L, W57F, N59D
VL: B1 VL
notes: complete MAb; FR4 is its own entry; also called H106/L3
B3: M1641 (antibody, V domains shown)
VH: B1 VH with G30I, P31T, I52L, W57S
VL: B1 VL with S31F, G33A, K36R, E61D, Y98D
notes: complete MAb; FR4 is its own entry; also called H22/L335
B4: M1594 (antibody, V domains shown)
VH: B1 VH with G30P, I52L, S55T, W57Y, N59V
VL: B1 VL
notes: complete MAb; FR4 is its own entry; also called H158/L3
B5: M1588 (antibody, V domains shown)
VH: B1 VH with Y32F, I52L, W57Y
VL: B1 VL
notes: complete MAb; FR4 is its own entry; also called H179/L3
B6: M1601 (antibody, V domains shown)
VH: B1 VH with I52L, S55T, W57Y, N59V
VL: B1 VL
notes: complete MAb; FR4 is its own entry; also called H105/L3
B7: M1605 (antibody, V domains shown)
VH: B1 VH with P31T, I52L, S55T, W57H, N59T
VL: B1 VL
notes: complete MAb; FR4 is its own entry; also called H168/L3
B8: M1598 (antibody, V domains shown)
VH: B1 VH with G30T, I52L, S55T, W57Y, N59V
VL: B1 VL
notes: complete MAb; FR4 is its own entry; also called H137/L3
B9: M1596 (antibody, V domains shown)
VH: B1 VH with G30T, I52L, W57H, N59T
VL: B1 VL
notes: complete MAb; FR4 is its own entry; also called H185/L3
B10: M1606 (antibody, V domains shown)
VH: B1 VH with G30I, Y32H, I52L
VL: B1 VL
notes: complete MAb; FR4 is its own entry; also called H181/L3
B11: M1589 (antibody, V domains shown)
VH: B1 VH with Y32H, I52L, S55T, W57Y
VL: B1 VL
notes: complete MAb; FR4 is its own entry; also called H187/L3
B12: M1585 (antibody, V domains shown)
VH: B1 VH with G30S, Y32F, S55T, W57Y
VL: B1 VL
notes: complete MAb; FR4 is its own entry; also called H139/L3
B13: M1591 (antibody, V domains shown)
VH: B1 VH with G30R, S55T, W57Y
VL: B1 VL
notes: complete MAb; FR4 is its own entry; also called H122/L3
B14: M1592 (antibody, V domains shown)
VH: B1 VH with G30S, Y32H, I52L, W57Y, N59I
VL: B1 VL
notes: complete MAb; FR4 is its own entry; also called H165/L3
B15: M1639 (antibody, V domains shown)
VH: B1 VH with G30I, P31T, I52L, W57S
VL: B1 VL with S31Y, K36R, E61S, Y98D, L102M
notes: complete MAb; FR4 is its own entry; also called H22/L320
B16: M1640 (antibody, V domains shown)
VH: B1 VH with G30I, P31T, I52L, W57S
VL: B1 VL with S31P, G33W, K36S, Y98F
notes: complete MAb; FR4 is its own entry; also called H22/L327
B17: M1613 (antibody, V domains shown)
VH: B1 VH with G30S, P31S, Y32H, I52L, W57F, N59H, Q82K
VL: B1 VL
notes: complete MAb; FR4 is its own entry; also called H136/L3
B18: M1586 (antibody, V domains shown)
VH: B1 VH with G30P, P31T, S55T
VL: B1 VL
notes: complete MAb; FR4 is its own entry; also called H164/L3
B19: M1597 (antibody, V domains shown)
VH: B1 VH with G30S, P31S, I52L, S55T, W57A, N59H
VL: B1 VL
notes: complete MAb; FR4 is its own entry; also called H134/L3
B20: M1638 (antibody, V domains shown)
VH: B1 VH with G30I, P31T, I52L, W57S
VL: B1 VL with S31W, S32F, G33V, W56H, Y98D, T99S
notes: complete MAb; FR4 is its own entry; also called H22/L138
B21: M1604 (antibody, V domains shown)
VH: B1 VH with G30A, I52L, S55T, W57Y, N59W
VL: B1 VL
notes: complete MAb; FR4 is its own entry; also called H138/L3
B22: M1590 (antibody, V domains shown)
VH: B1 VH with G30L, S55T, W57F
VL: B1 VL
notes: complete MAb; FR4 is its own entry; also called H117/L3
B23: M1610 (antibody, V domains shown)
VH: B1 VH with G30A, S55T, W57Y, N59T
VL: B1 VL
notes: complete MAb; FR4 is its own entry; also called H115/L3
B24: M1595 (antibody, V domains shown)
VH: B1 VH with G30Y, I52L, S55T, W57F
VL: B1 VL
notes: complete MAb; FR4 is its own entry; also called H160/L3
B25: M1599 (antibody, V domains shown)
VH: B1 VH with I52L, S55T, W57Y, N59L
VL: B1 VL
notes: complete MAb; FR4 is its own entry; also called H130/L3
B26: M1587 (antibody, V domains shown)
VH: B1 VH with G30I, I52L, W57F, N59T
VL: B1 VL
B27: M1649 (antibody, V domains shown)
VH: B1 VH with G30A, I52L, S55T, W57F, N59T
VL: B1 VL with S31F, G33A, K36R, E61D, Y98D
notes: complete MAb; FR4 is its own entry; also called H171/L335
B28: M1653 (antibody, V domains shown)
VH: B1 VH with G30A, I52L, S55T, W57F, N59T
VL: B1 VL with S31Y, S32T, G33S, Y98D, T99Y, Y100W
notes: complete MAb; FR4 is its own entry; also called H171/L283
B29: M1652 (antibody, V domains shown)
VH: B1 VH with G30A, I52L, S55T, W57F, N59T
VL: B1 VL with S31F, S32R, G33P, N34T, Y98D, T99S
notes: complete MAb; FR4 is its own entry; also called H171/L225
B30: M1651 (antibody, V domains shown)
VH: B1 VH with G30A, I52L, S55T, W57F, N59T
VL: B1 VL with S31Y, S32V, G33Y, N34G, Y98F, T99S, Y100W
notes: complete MAb; FR4 is its own entry; also called H171/L162
B31: M1646 (antibody, V domains shown)
VH: B1 VH with G30A, I52L, S55T, W57F, N59T
VL: B1 VL with S31W, S32F, G33V, W56H, Y98D, T99S
notes: complete MAb; FR4 is its own entry; also called H171/L138

The first assay concerns the target Innovin, lyophilized recombinant human tissue factor combined with phospholipids (human, UniProt P13726 33-295, limits assumed). In words: cell-based or functional assay. Note: test concentration or dose not given here.
Turning to B1, the “T½ Max (seconds), coagulation of human plasma” value (“T½ Max (seconds), coagulation” below) is 189 s.
With B2, the “T½ Max (seconds), coagulation” value was 163 s.
On to B3, for which the “T½ Max (seconds), coagulation” value came to 162 s.
Same read-out and setting: with B4 the figure was 165 s; with B5, 207 s; with B6, 180 s.
Regarding B7, the “T½ Max (seconds), coagulation” value stood at 160 s.
As for B8, the “T½ Max (seconds), coagulation” value worked out at 155 s.
Same read-out and setting: to B9 belongs 163 s; to B10, 157 s; to B11, 202 s.
Same read-out and setting: with B12 the figure was 205 s; with B13, 154 s.
Consider B14, for which the “T½ Max (seconds), coagulation” value was 163 s.
For the molecule B15, the “T½ Max (seconds), coagulation” value was determined as 167 s.
As for B16, the “T½ Max (seconds), coagulation” value amounted to 168 s.
Turning to B17, the “T½ Max (seconds), coagulation” value was 165 s.
As to B18, the “T½ Max (seconds), coagulation” value turned out to be 200 s.
In the case of B19, the “T½ Max (seconds), coagulation” value is 157 s.
For the molecule B20, the “T½ Max (seconds), coagulation” value worked out at 163 s.
For the molecule B21, the “T½ Max (seconds), coagulation” value is 165 s.
As to B22, the “T½ Max (seconds), coagulation” value was 180 s.
In the case of B23, the “T½ Max (seconds), coagulation” value came out at 164 s.
As for B24, the “T½ Max (seconds), coagulation” value came to 163 s.
Turning to B25, the “T½ Max (seconds), coagulation” value was determined as 151 s.
As to B26, the “T½ Max (seconds), coagulation” value worked out at 202 s.

A further assay addresses T1, recombinant extracellular domain (ECD) of human TF, amino acid 1-219 of the mature chain, C-terminal His6-tag (human, UniProt P13726 33-251).
T1 construct: expressed in a mammalian system; used for ELISA and Biacore; biotinylated by NHS-ester for the Fab ELISA; also called His6-TF-ECD1-219; HumanTF1-219
Nature of the assay: Biacore.
Regarding B1, the Kd amounted to 0.42 nM, the off-rate constant (koff) came to 0.0001 s⁻¹ and the kon amounted to 239000 M⁻¹ s⁻¹.
B2: the dissociation constant Kd was 0.62 nM, the koff amounted to 8.2e-05 s⁻¹ and the kon amounted to 132000 M⁻¹ s⁻¹.
As to B3, the Kd was 0.12 nM.
On to B27, for which the Kd is 0.17 nM.
Regarding B4, the Kd worked out at 0.35 nM, the koff was found to be 4.3e-05 s⁻¹ and the kon was 124000 M⁻¹ s⁻¹.
As to B5, the Kd came out at 0.35 nM, the koff was found to be 6e-05 s⁻¹ and the kon stood at 173000 M⁻¹ s⁻¹.
With B28, the Kd worked out at 0.16 nM.
For B6, the Kd is 0.33 nM, the koff turned out to be 4.6e-05 s⁻¹ and the kon is 137000 M⁻¹ s⁻¹.
On the same counts, the results for B7 are 0.64 nM, 8.6e-05 s⁻¹ and 135000 M⁻¹ s⁻¹.
In the case of B8, the Kd was 0.33 nM, the koff stood at 6.3e-05 s⁻¹ and the kon is 192000 M⁻¹ s⁻¹.
Consider B9, for which the Kd stood at 0.33 nM, the koff is 4.3e-05 s⁻¹ and the kon turned out to be 131000 M⁻¹ s⁻¹.
B10: the Kd was determined as 0.18 nM, the koff was found to be 2.9e-05 s⁻¹ and the kon was determined as 166000 M⁻¹ s⁻¹.
In the case of B11, the Kd was determined as 0.4 nM, the koff was found to be 7e-05 s⁻¹ and the kon was found to be 174000 M⁻¹ s⁻¹.
Regarding B12, the Kd amounted to 0.49 nM, the koff amounted to 9e-05 s⁻¹ and the kon came to 185000 M⁻¹ s⁻¹.
With B13, the Kd came out at 0.41 nM, the koff was 5.6e-05 s⁻¹ and the kon amounted to 134000 M⁻¹ s⁻¹.
Regarding B14, the Kd is 0.4 nM, the koff was 7.7e-05 s⁻¹ and the kon was 191000 M⁻¹ s⁻¹.
With B15, the Kd is 0.08 nM.
For the molecule B16, the Kd came out at 0.76 nM.
For the molecule B17, the Kd came to 0.92 nM, the koff came to 7e-05 s⁻¹ and the kon was 75700 M⁻¹ s⁻¹.
On the same counts, the results for B18 are 0.78 nM, 0.000143 s⁻¹ and 184000 M⁻¹ s⁻¹.
For B19, the Kd came out at 0.8 nM, the koff was found to be 6.6e-05 s⁻¹ and the kon is 83400 M⁻¹ s⁻¹.
As for B20, the Kd amounted to 0.2 nM.
The same measure, in the same setting: with B29 the figure was 0.11 nM.
As for B21, the Kd is 0.14 nM, the koff amounted to 2.2e-05 s⁻¹ and the kon was 152000 M⁻¹ s⁻¹.
For the molecule B22, the Kd amounted to 0.69 nM, the koff is 0.000109 s⁻¹ and the kon came to 159000 M⁻¹ s⁻¹.
As to B23, the Kd was determined as 0.54 nM, the koff worked out at 0.0001 s⁻¹ and the kon came out at 184000 M⁻¹ s⁻¹.
On to B30, for which the Kd was determined as 0.19 nM.
With B24, the Kd is 0.39 nM, the koff stood at 6.8e-05 s⁻¹ and the kon stood at 176000 M⁻¹ s⁻¹.
On to B25, for which the Kd stood at 0.39 nM, the koff was 5.3e-05 s⁻¹ and the kon stood at 138000 M⁻¹ s⁻¹.
As for B31, the Kd is 0.19 nM.
